The text below walks through data of publication doi:10.1101/325712 (bioRxiv, 2018).

Assay [1] deals with T1, human FLNC domains 18-21 (residues 1943-2408), EEF-tagged (human, UniProt Q14315 1943-2408).
T1 sequence: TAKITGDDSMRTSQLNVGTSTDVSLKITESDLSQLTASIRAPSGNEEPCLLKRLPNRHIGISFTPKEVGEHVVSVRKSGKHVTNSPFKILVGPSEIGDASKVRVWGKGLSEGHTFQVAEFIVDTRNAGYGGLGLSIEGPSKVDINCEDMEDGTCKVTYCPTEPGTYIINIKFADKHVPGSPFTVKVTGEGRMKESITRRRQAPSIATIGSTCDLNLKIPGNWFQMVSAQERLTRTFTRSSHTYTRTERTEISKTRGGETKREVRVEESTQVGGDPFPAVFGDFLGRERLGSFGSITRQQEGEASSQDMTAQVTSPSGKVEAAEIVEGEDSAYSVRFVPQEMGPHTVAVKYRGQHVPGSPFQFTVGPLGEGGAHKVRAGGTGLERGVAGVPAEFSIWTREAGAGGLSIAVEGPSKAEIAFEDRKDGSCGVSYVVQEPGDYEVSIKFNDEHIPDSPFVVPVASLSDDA
Put plainly: native MS.

Assay [2] addresses human HspB1 ACD (residues 84-170) (human, UniProt P04792 84-170). Put plainly: crystal structure.

Square brackets hold non-standard residues; d marks the D form. Ends that are not written are not given here. pS = N[C@@H](COP(=O)(O)O)C(=O)O

Chain of human HspB1 ACD (residues 84-170) (P04792 84-170): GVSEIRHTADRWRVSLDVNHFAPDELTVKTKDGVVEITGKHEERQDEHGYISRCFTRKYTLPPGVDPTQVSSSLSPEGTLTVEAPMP

Regarding Ac-QLSSGVSEI [HspB1 peptide residues 80-88, unphosphorylated], in assay [1], the affinity, expressed as Kd, was 130 ± 17 µM. For ALSRQL[pS]SGVSEI [HspB1 peptide residues 76-88 phosphorylated at Ser82], the binding result in assay [2] is given as “binds”. On to Ac-QLSSGVSEI (not fully specified) [HspB1 peptide residues 80-88, phosphorylated], for which, in assay [1], the affinity, expressed as Kd, was 110 ± 10 µM.
